Tests used:
[1] = tested on: Pancreatic cancer cell line KLM-1 (MSLN+); experiment: In vitro cytotoxicity, CellTiter-Glo luminescent cell viability assay, KLM-1; assay type: cell-based, human; conditions: KLM-1, 72 hours treatment; read-out: Relative IC50 (nM of toxic payload/ADCs)
Method: (§1) Pancreatic cancer cell line KLM-1 was respectively grown in RPMI 1640 Medium (ATCC modification) medium supplemented with 10% fetal bovine serum. Ovarian carcinoma cell line OVCAR-3 was grown in RPMI 1640 Medium (ATCC modification) medium supplemented with 20% fetal bovine serum. The KLM-1 & OVCAR-3 cell lines were maintained in an atmosphere of 5% CO2 in a humidified 37° C. incubator. The day before treatment, cells were collected and seeded into 96-well plates (4,000 cells per well). On the second day, cells were treated with 3-fold serial dilution concentration of toxic payloads and ADCs. Each treatment was performed in eight triplicate data points. After the treatment of 72 hours, cell viability was assessed by CellTiter-Glo® kit (Promega) according to the manufacturer's instruction. At the end of the incubation, luminescence was measured using a SpectraMax i3x Multi Mode Detection Platform (Molecular Devices). Compound cytotoxicity was evaluated in comparison to cells treated with 0.05% PBS (ADCs) or 0.05% DMSO (toxic payload). IC50 values were calculated by fitting viability data with a four-parameter logistic equation using GraphPad prism 5.0 software.

[2] = tested on: Ovarian carcinoma cell line OVCAR-3 (MSLN+); experiment: In vitro cytotoxicity, CellTiter-Glo luminescent cell viability assay, OVCAR-3; assay type: cell-based, human; conditions: OVCAR-3, 72 hours treatment; read-out: Relative IC50 (nM of toxic payload/ADCs)
Method: as §1, with “The” for “Pancreatic cancer cell line KLM-1 was respectively grown in RPMI 1640 Medium (ATCC modification) medium supplemented with 10% fetal bovine serum. Ovarian carcinoma cell line OVCAR-3 was grown in RPMI 1640 Medium (ATCC modification) medium supplemented with 20% fetal bovine serum. The”

[3] = In vivo PK in mice, MSD ECL total and conjugated antibody assays; set-up: species or system BALB/c mice; conditions: 3 mg/kg via the tail vein
Method: The mice were administered at a dose level of 3 mg/kg via the tail vein. Blood samples were then obtained at different time points for determining the concentrations of DCBPR2002-4(DBCO-vc-MMAE) in mice by MESO QuickPlex SQ 120 method.

[4] = In vivo PK in rats, MSD ECL total and conjugated antibody assays; conditions: for AUC(0−last) / AUC(0−∞) / C0 / CL / MRT / Vss / t1/2: 5 mg/kg via the tail vein, serum
From the text: This study used Meso Scale Discovery (MSD) Electrochemiluminescent (ECL) method to conduct the pharmacokinetic analysis of DCBPR2002-4(DBCO-vc-MMAE) in BALB/c mice and rat samples. The MSD assay can measure both conjugated and unconjugated antibodies. As illustrated in this example, or total antibody assay the plate is coated with goat anti-human IgG, which can capture all humanized antibodies (conjugated and unconjugated). For the conjugated antibody assay, the plate is coated with an antibody against the payload (drug), such as anti-MMAE antibody.
The in vivo pharmacokinetic study was designed for the comparison the linker-payload stability of trimannosyl-conjugated and cysteine-conjugated synthesis ADC (Adcetris). The rats were administered DCBPR2002-4(DBCO-vc-MMAE) and Adcetris at a dose level of 5 mg/kg via the tail vein. Serum samples were then obtained at different time points for determination of the concentrations of DCBPR2002-4(DBCO-vc-MMAE) and Adcetris in rats by MESO QuickPlex SQ 120 method. The pharmacokinetic parameters of DCBPR2002-4(DBCO-vc-MMAE) and Adcetris were analyzed by noncompartmental analysis using Phoenix™ for WinNonlin Program, version 6.3.

[5] = tested on: KLM-1 human pancreatic cancer xenograft; experiment: KLM-1 xenograft model (Example 43); assay type: in vivo, male NOD SCID mice; conditions: 15 mg/kg IV once weekly for 3 weeks
Method: (§2) Each of the formulations was administered intravenously (IV) to the mice once weekly for three weeks.
(§3) Five mice were housed in each cage.
When the average tumor volume had reached about 200 mm^3, the mice were randomly divided into 3 groups (N=6 per group). Each of the vehicle, DCBPR2002-lysine-DBCO-vc-MMAE (15 mg/kg), and DCBPR2002-4(DBCO-vc-MMAE) (15 mg/kg) was intravenously administered once weekly for 3 weeks.
(§4) Differences are considered significant at *P<0.05.

[6] = tested on: KLM-1 human pancreatic cancer xenograft; experiment: KLM-1 xenograft model (Example 44); assay type: in vivo; conditions: for tumor growth / anti-tumor activity: TGI≥58% considered significant
Method: as §2, §3
When the average tumor volume had reached 200 mm^3, the mice were randomLy divided into 4 groups (N=6 per group). Each of the vehicle, DCBPR2002-4(DBCO-vc-MMAE) (15 and 30 mg/kg), and naked antibody (DCBPR2002, 30 mg/kg) was intravenously administered once weekly for 3 weeks.
as §4

[7] = tested on: OVCAR-3 human ovarian cancer xenograft; experiment: OVCAR-3 xenograft model (Example 47); assay type: in vivo, female NOD SCID mice; conditions: for tumor growth / anti-tumor activity: TGI≥58% considered significant
Method: as §3
OVCAR-3 cells were subcutaneously (SC) implanted (1×10^7 cells in 1:1 PBS/matrigel mixture at 0.2 mL per mouse) into the right flank of female NOD SCID mice. […] Each of the vehicle, DCBPR2002-4(DBCO-vc-MMAE) (5 and 15 mg/kg), and DCBPR2002-TM (15 mg/kg) was intravenously administered once weekly for 3 weeks.
as §4

[8] = 15 mg/kg IV once weekly for 3 weeks
[9] = 30 mg/kg IV once weekly for 3 weeks
[10] = 5 mg/kg IV once weekly for 3 weeks

B1: DCBPR2002-4(DBCO-vc-MMAE): DCBPR2002-4Az reacted with DBCO-vc-MMAE; trimannosyl-conjugated ADC, DAR 3.89 (conjugate)
VH: QVQLVQSGAEVKKPGASVKVSCKASGYSFTGYTMNWVRQAPGQGLEWMGLITPYNGASSYNQKFRGRVTMTRDTSISTAYMELSRLRSDDTAVYYCARGGYDGRGFDYWGQGTLVTVSS
VL: EIVLTQSPATLSLSPGERATLSCSASSSVSYMHWYQQKPGQAPRLLIYDTSKLASGIPARFSGSGSGTDFTLTISSLEPEDFAVYYCQQWSKHPLTFGQGTKVEIKR
IC50 [1]: 101 nM
IC50 [2]: 1 nM
AUC(0−last) ([3]; Conjugated antibody): 2264 ng·h/mL
C0 ([3]; Conjugated antibody): 275 ng/mL
MRT ([3]; Conjugated antibody): 23.4 h
Vss ([3]; Conjugated antibody): 0.155 L/kg
AUC(0−last) ([3]; Total antibody): 25963 ng·h/mL
C0 ([3]; Total antibody): 346 ng/mL
MRT ([3]; Total antibody): 299 h
Vss ([3]; Total antibody): 0.129 L/kg
t1/2 ([3]; Total antibody): 220 h
AUC(0−last) ([4]; Conjugated antibody): 2334.505 µg·h/mL
AUC(0−∞) ([4]; Conjugated antibody): 2400.45 µg·h/mL
C0 ([4]; Conjugated antibody): 80.955 µg/mL
CL ([4]; Conjugated antibody): 2.1 mL/h/kg
MRT ([4]; Conjugated antibody): 85.6 h
Vss ([4]; Conjugated antibody): 0.179 L/kg
t1/2 ([4]; Conjugated antibody): 148 ± 8.14 h
AUC(0−last) ([4]; Total antibody): 4013.185 µg·h/mL
AUC(0−∞) ([4]; Total antibody): 4363.325 µg·h/mL
C0 ([4]; Total antibody): 94.121 µg/mL
CL ([4]; Total antibody): 1.14 mL/h/kg
MRT ([4]; Total antibody): 160 h
Vss ([4]; Total antibody): 0.183 L/kg
t1/2 ([4]; Total antibody): 194 ± 35.0 h
difference between the curve of total antibody and conjugated antibody (stability of the conjugated linker-payload) ([4]; 5 mg/kg, compared with Adcetris): closed on DCBPR2002-4(DBCO-vc-MMAE) than that of Adcetris
body weight changes [5]: No body weight loss was observed
tumor growth / anti-tumor activity ([5]; TGI≥58% considered significant): significantly reduced KLM-1 tumor growth from Day 7 to Day 28
body weight changes [6, 8]: No body weight loss was observed
tumor growth / anti-tumor activity [6, 8]: significantly reduced KLM-1 tumor growth from Day 7 to Day 28
body weight changes [6, 9]: No body weight loss was observed
tumor growth / anti-tumor activity [6, 9]: significantly reduced KLM-1 tumor growth from Day 7 to Day 28
body weight changes [7, 10]: No body weight loss was observed
tumor growth / anti-tumor activity [7, 10]: significantly reduced OVCAR-3 tumor growth
body weight changes [7, 8]: No body weight loss was observed
tumor growth / anti-tumor activity [7, 8]: significantly reduced OVCAR-3 tumor growth
